Earlier results in PMC11533685.

Experiments:
CD200R ECD = CD200R ECD (UniProt Q8TD46); experiment: SPR
CD58 ECD (Homo sapiens) = CD58 ECD (Homo sapiens) (UniProt P19256); experiment: SPR
Sequence of UniProt P19256 (P19256 29-215): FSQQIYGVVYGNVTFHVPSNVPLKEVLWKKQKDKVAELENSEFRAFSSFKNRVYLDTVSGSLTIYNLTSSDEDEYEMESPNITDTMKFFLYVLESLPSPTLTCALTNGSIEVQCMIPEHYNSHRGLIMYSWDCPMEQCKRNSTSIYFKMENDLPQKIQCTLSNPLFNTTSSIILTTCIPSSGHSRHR

Sequence of UniProt Q8TD46 (Q8TD46 25-265): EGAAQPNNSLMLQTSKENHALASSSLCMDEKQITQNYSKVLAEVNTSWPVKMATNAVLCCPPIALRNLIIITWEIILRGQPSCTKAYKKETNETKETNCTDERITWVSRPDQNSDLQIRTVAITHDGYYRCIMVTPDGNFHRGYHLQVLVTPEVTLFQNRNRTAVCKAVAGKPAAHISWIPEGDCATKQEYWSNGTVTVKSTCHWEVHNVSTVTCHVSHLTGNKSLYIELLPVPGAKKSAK

Kd (CD58 ECD (Homo sapiens)) | Substance | Kd (CD200R ECD)
– | CD200 ECD (from UniProt P41217) | 1 µM
10 µM | CD2 ECD (from UniProt P06729) | –
